From patent US20030032096A1 (US Dept. of Health and Human Services, published 2003)
“And” between values parts separate entries of the source, which are not always exact repeats. Identical values can stand only once. Like-named read-outs stand apart in the source and are kept apart here. No end group written: not given here. *: point of attachment. 125I = [125I]*

What was measured:
[1] = target: human parathyroid hormone type 1 receptor (PTH1 receptor) (human) (UniProt Q03431); experiment: displacement of [125I][Nle8,21,Tyr34]rPTH(1-34), HEK293 membranes, 10 µM GTPγS
[2] = target: human parathyroid hormone type 2 receptor (PTH2 receptor) (human) (UniProt P49190); experiment: cell-based or functional assay
rat PTH2 receptor = rat PTH2 receptor (rat, UniProt P70555 25-546); experiment: cell-based or functional assay
[3] = target: human parathyroid hormone type 1 receptor (PTH1 receptor) (human) (UniProt Q03431); experiment: radioligand binding to the PTH1 receptor
[4] = target: human parathyroid hormone type 1 receptor (PTH1 receptor) (human) (UniProt Q03431); experiment: direct dissociation of the radioligand from the PTH1 receptor
[5] = target: C-terminal hemaglutinin-tagged human PTH1 receptor (Example 11) (human) (UniProt Q03431); experiment: cell-based or functional assay
[6] = target: human parathyroid hormone type 1 receptor (PTH1 receptor) (human) (UniProt Q03431); experiment: Motulsky and Mahan kinetic competition with [125I]TIP(7-39), HEK293 membranes
[7] = target: human parathyroid hormone type 2 receptor (PTH2 receptor) (human) (UniProt P49190); experiment: displacement of [125I]TIP39, HEK293 membranes, centrifugation assay
[8] = target: human parathyroid hormone type 2 receptor (PTH2 receptor) (human) (UniProt P49190); experiment: displacement of [125I]TIP39, HEK293 membranes, with against without GTPγS
[9] = target: human parathyroid hormone type 2 receptor (PTH2 receptor) (human) (UniProt P49190); experiment: membrane radioligand binding, presence of GTPγS
[10] = target: human parathyroid hormone type 1 receptor (PTH1 receptor) (human) (UniProt Q03431); experiment: radioligand binding, HEK293 membranes, 10 µM GTPγS, 43 000 cpm added
[11] = target: human parathyroid hormone type 2 receptor (PTH2 receptor) (human) (UniProt P49190); experiment: membrane radioligand binding, absence of GTPγS
[12] = target: human parathyroid hormone type 2 receptor (PTH2 receptor) (human) (UniProt P49190); experiment: cell-based or functional assay; remark: listed apart in the source
[13] = target: T1, human parathyroid hormone type 2 receptor (PTH2 receptor) (human, UniProt P49190 25-550); experiment: displacement of [125I]TIP39, 293PTH2 membranes, filtration assay
T1 construct: whole, on cells; also called human PTH2 receptor; hPTH2 receptor

[14] = target: T2, human parathyroid hormone type 1 receptor (PTH1 receptor) (human, UniProt Q03431 27-593); experiment: cell-based or functional assay
T2 sequence (looked up): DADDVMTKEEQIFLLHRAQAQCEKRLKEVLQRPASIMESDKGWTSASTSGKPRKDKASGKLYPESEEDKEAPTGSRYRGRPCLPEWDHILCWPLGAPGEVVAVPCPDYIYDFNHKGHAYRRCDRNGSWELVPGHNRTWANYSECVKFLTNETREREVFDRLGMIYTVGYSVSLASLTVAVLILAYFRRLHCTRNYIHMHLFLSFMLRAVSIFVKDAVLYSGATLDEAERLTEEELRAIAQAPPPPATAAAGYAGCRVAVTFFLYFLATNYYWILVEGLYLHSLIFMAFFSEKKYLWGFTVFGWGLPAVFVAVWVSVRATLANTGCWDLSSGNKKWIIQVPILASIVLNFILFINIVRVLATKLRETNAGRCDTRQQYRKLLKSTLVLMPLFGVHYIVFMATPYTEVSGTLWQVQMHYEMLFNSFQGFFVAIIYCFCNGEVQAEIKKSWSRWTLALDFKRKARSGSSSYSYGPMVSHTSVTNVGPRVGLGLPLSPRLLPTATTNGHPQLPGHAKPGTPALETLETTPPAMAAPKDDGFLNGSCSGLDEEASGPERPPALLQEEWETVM

[15] = target: T2, human parathyroid hormone type 1 …; experiment: displacement of [125I][Nle8,21,Tyr34]rPTH(1-34), 293PTH1 membranes, filtration assay
Text: Under the conditions of the assay, the receptor-G-protein complex is the predominant receptor state detected.

[16] = target: T1, human parathyroid hormone type 2 …; experiment: displacement of [125I]TIP39, 293PTH2 membranes, centrifugation assay, 10 µM GTPγS
Experimental: (§1) This assay measures the affinity of ligands for the free receptor, uncoupled from G-protein.
(§2) A similar assay design was used for the PTH1 and PTH2 receptor, in which radiolabeled agonist binding was displaced by the unlabeled ligands in the presence of 10 μM GTPγS. Briefly, cell membranes (45 μg), radioligand (50 000 cpm) and unlabeled ligand were incubated in a final volume of 1 ml assay buffer (20 mM HEPES, 100 mM NaCl, 1 mM EDTA, 3 mM MgSO₄ pH 7.5, supplemented with 0.3% non-fat dried milk powder, 100 μM (4-(2-aminoethyl))-benzenesulfonylflouride (AEBSF), 1 μg/ml bacitracin and 10 μM GTPγS) for two hours at 21° C. Membranes were collected at 18 000×g, the surface of the pellet gently washed and the radioactivity counted as described in Examples. […] To prevent greater than 20% of the total radioligand added from binding to the membranes, 15-20 μg of membranes from transfected cells were used, made up to 45 μg with membranes from non-transfected cells.

[17] = target: T2, human parathyroid hormone type 1 …; experiment: radioligand displacement, 293PTH1 membranes, centrifugation assay, 10 µM GTPγS
[18] = target: T2, human parathyroid hormone type 1 …; experiment: displacement of [125I][Nle8,21,Tyr34]rPTH(1-34), 293PTH1 membranes, centrifugation assay, 10 µM GTPγS
Experimental: as §1, §2

[19] = target: T2, human parathyroid hormone type 1 …; experiment: y intercept of kon(obs) against radioligand concentration, HEK293 membranes
Experimental: (§3) Total binding data were analyzed using Equation 3. For presentation purposes the non-specific binding has been subtracted and specific binding values expressed as pmol radioligand bound per mg of membrane protein. Data points are mean±s.e.m. of triplicate determinations. The experiment was performed three times with similar results. In most cases the error bars are enclosed within the symbol. […] Linear regression analysis was performed on pooled data to obtain estimates of kₒₙ (provided by the gradient) and koff (provided by the y intercept). […] Dissociation time course. The line is the best fit of the data to a mono-exponential function. […] Data points are the mean±s.e.m. of triplicate measurements. The experiment was performed twice with similar results. In most cases the error bars are enclosed within the symbol.
(§4) Incubations were carried out in 96-well polypropylene plates. The incubation mixture was transferred to a polyvinylidene fluoride filtration plate (MAHVN45, Millipore, Bedford, Mass.) and the membranes collected by rapid filtration using a Millipore Multiscreen vacuum manifold. […] In radioligand association experiments, radioligand and buffer were brought to 21° C. by incubation in a water bath for 15 minutes. Similarly pre-warmed membranes were then added to the wells at various time points and the assay wells harvested simultaneously.

[20] = target: T2, human parathyroid hormone type 1 …; experiment: radioligand binding, HEK293 membranes, filtration
Experimental: Incubations were carried out in 96-well polypropylene plates. The incubation mixture was transferred to a polyvinylidene fluoride filtration plate (MAHVN45, Millipore, Bedford, Mass.) and the membranes collected by rapid filtration using a Millipore Multiscreen vacuum manifold. […] In radioligand association experiments, radioligand and buffer were brought to 21° C. by incubation in a water bath for 15 minutes.

[21] = target: T2, human parathyroid hormone type 1 …; experiment: saturation binding, HEK293 membranes, filtration
Experimental: as §3, §4

[22] = target: T2, human parathyroid hormone type 1 …; experiment: kinetically derived from association and dissociation of the radioligand, HEK293 membranes
Experimental: as §3, §4

[23] = target: T2, human parathyroid hormone type 1 …; experiment: radioligand association kinetics, HEK293 membranes, filtration; value held constant in the fit of FIG. G
Experimental: as §3, §4

[24] = target: T2, human parathyroid hormone type 1 …; experiment: radioligand dissociation kinetics, HEK293 membranes, filtration; value held constant in the fit of FIG. G
Experimental: as §3, §4

[25] = target: T2, human parathyroid hormone type 1 …; experiment: dissociation time course of the radioligand, HEK293 membranes
Experimental: as §3, §4

[26] = target: human parathyroid hormone type 1 receptor (PTH1 receptor) (human) (UniProt Q03431); experiment: cell-based or functional assay

Chain of human parathyroid hormone type 2 receptor (PTH2 receptor) (human) (P49190 25-550): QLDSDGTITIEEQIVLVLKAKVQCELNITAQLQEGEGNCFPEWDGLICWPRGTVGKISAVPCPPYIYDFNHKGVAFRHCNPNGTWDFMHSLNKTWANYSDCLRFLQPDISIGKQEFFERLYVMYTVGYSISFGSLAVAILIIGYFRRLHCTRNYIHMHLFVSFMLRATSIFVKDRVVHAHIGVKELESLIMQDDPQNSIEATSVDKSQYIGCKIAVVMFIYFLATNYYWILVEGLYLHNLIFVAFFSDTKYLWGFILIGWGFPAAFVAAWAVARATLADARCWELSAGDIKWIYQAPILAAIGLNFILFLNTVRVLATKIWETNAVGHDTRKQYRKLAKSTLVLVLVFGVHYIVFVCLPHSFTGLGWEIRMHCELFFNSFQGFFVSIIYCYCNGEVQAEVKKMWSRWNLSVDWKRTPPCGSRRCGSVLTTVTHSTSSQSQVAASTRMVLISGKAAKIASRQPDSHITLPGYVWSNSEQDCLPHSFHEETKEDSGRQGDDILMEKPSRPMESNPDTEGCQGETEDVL
T1 sequence (P49190 25-550): as above
Chain of rat PTH2 receptor (P70555 25-546): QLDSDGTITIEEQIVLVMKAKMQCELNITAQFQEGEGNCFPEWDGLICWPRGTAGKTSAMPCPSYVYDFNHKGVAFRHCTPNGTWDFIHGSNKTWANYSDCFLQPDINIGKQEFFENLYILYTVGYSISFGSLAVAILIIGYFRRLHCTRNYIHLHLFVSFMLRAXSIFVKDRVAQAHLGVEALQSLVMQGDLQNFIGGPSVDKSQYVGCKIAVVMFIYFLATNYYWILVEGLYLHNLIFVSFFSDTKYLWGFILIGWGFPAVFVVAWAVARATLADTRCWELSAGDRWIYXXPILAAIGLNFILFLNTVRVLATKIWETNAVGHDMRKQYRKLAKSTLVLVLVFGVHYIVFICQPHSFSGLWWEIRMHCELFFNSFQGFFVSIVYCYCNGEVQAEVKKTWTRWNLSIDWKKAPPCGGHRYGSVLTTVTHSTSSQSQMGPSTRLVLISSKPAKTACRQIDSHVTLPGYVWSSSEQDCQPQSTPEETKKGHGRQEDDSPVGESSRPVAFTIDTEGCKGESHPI

[D-Tryp^12, Tyr^34]bPTH(7-34) amide (from UniProt P01268 38-65) (peptide)
fold difference of IC50 against TIP(7-39) [1]: 7.3 fold

[Nle^8,18, D-Tryp^12, Tyr^34]bPTH(7-34) amide (from UniProt P01268 38-65) (peptide)
pA2 (shift of rPTH(1-34) cAMP EC50 by 1 µM antagonist) [2]: 6.5
pA2 as concentration [2]: 320 nM
pA2 (shift of rPTH(1-34) cAMP EC50 by 1 µM antagonist) (rat PTH2 receptor): 6.5
pA2 as concentration (rat PTH2 receptor): 310 nM

[^125I][Nle^8,18, Tyr^34]bPTH(3-34) (from UniProt P01268 34-65) (peptide)
signal-to-noise ratio [3]: 6
koff [4]: 0.00102 s⁻¹

PTHrP(1-34) (from UniProt P12272 37-70) (peptide)
Emax, % of response to 1 µM hPTH(1-34) [2]: 25%
Emax, % of response of hPTH2r to 1 µM hPTH(1-34) (rat PTH2 receptor): 7%
Emax, % of response of rPTH2r to 3 µM rPTH(1-34) (rat PTH2 receptor): 14%

hPTH(1-84) (from UniProt P01270 32-115) (peptide)
Emax, % of response to 1 µM hPTH(1-34) [2]: 79%

[Nle^8,18, Tyr^34]bPTH(3-34) amide (from UniProt P01268 34-65) (peptide)
Emax, % of the maximal response to rPTH(1-34) (cAMP, COS-7 cells) [5]: 26%
-logEC50 (cAMP accumulation) [2]: 8.28
EC50 (cAMP accumulation) [2]: 5.2 nM
Emax, % of response to 1 µM hPTH(1-34) [2]: 37%
koff [6]: 0.0005 s⁻¹

hPTH(1-34) (from UniProt P01270 32-65) (peptide)
maximal ligand-stimulated cAMP production [2]: 4 pmol.well^-1
maximal ligand-stimulated cAMP production (25 µl assay volume) [2]: 6 pmol.well^-1
Emax, % of response of hPTH2r to 1 µM hPTH(1-34) (rat PTH2 receptor): 22%
Emax, % of response of rPTH2r to 3 µM rPTH(1-34) (rat PTH2 receptor): 43%

[Nle^8,21, Tyr^34]rPTH(1-34) amide (from UniProt P04089 32-65) (peptide)
IC50 [7]: 1.1 nM
fold increase of IC50 with GTPγS [8]: 1.5 fold

[Nle^8,18, Tyr^34]bPTH(1-34) (from UniProt P01268 32-65) (peptide)
-logEC50 (cAMP accumulation) [2]: 8.41
EC50 (cAMP accumulation) [2]: 3.9 nM
Emax, % of response to 1 µM hPTH(1-34) [2]: 76%
-logEC50 (cAMP accumulation) (rat PTH2 receptor): 6.85
EC50 (cAMP accumulation) (rat PTH2 receptor): 141 nM
Emax, % of response of hPTH2r to 1 µM hPTH(1-34) (rat PTH2 receptor): 5%
Emax, % of response of rPTH2r to 3 µM rPTH(1-34) (rat PTH2 receptor): 19%

[^125I][Nle^8,21, Tyr^34]rPTH(1-34) (from UniProt P04089 32-65) (peptide)
signal-to-noise ratio [9]: 2 fold
total binding (cpm) [10]: 4400 cpm and 4800 cpm
signal-to-noise ratio [11]: 3.5 fold

B1: rPTH(1-84) (peptide, UniProt P04089 32-115, looked up)
peptide: AVSEIQLMHNLGKHLASVERMQWLRKKLQDVHNFVSLGVQMAAREGSYQRPTKKEENVLVDGNSKSLGEGDKADVDVLVKAKSQ
-logEC50 (cAMP accumulation) [12]: 9.24
EC50 (cAMP accumulation) [12]: 0.58 nM
Emax, % of response to 1 µM hPTH(1-34) [12]: 98%
-logEC50 (cAMP accumulation) (rat PTH2 receptor): 7.72
EC50 (cAMP accumulation) (rat PTH2 receptor): 19 nM
Emax, % of response of hPTH2r to 1 µM hPTH(1-34) (rat PTH2 receptor): 28%
Emax, % of response of rPTH2r to 3 µM rPTH(1-34) (rat PTH2 receptor): 97%

DAAFRERARLLAALERRHWLNSYMHKLLVLDAP (also called bTIP(7-39)) [TIP(7-39)]
fold lower affinity than full-length TIP39 [13]: 70 fold
fold-shift of rPTH(1-34) EC50 by 1 µM TIP(7-39), 20% human plasma [14]: 11 fold
fold-shift of rPTH(1-34) EC50 by 1 µM TIP(7-39), absence of plasma [14]: 7 fold
fold higher affinity than TIP39 [15]: 5.6 fold
-logIC50 [16]: 7.01
IC50 [16]: 98 nM
fold lower binding potency than full-length TIP39 [16]: 32 fold
fold higher affinity than TIP39 [17]: 12 fold
-logIC50 [18]: 8.3
IC50 [18]: 5 nM

ALADDAAFRERARLLAALERRHWLNSYMHKLLVLDAP [TIP(3-39)]
binding result [13]: binds

ADDAAFRERARLLAALERRHWLNSYMHKLLVLDAP [TIP(5-39)]
binding result [13]: binds

B2: [^125I]TIP(7-39) (peptide)
peptide: DAAFRERARLLAALERRHWLNSY(125I)MHKLLVLDAP
notes: 2000 Ci/mmol; also called radiolabeled TIP(7-39)
koff [19]: 0.00128 s⁻¹
total binding: non-specific binding ratio [20]: ~5
Kd [21]: 1.3 nM
Kd [22]: 0.57 nM
kon [23]: 1.48e+06 M⁻¹ s⁻¹
koff [24]: 0.00085 s⁻¹
koff [25]: 0.000833 s⁻¹

B3: TIP(2-39) (peptide)
peptide: LALADDAAFRERARLLAALERRHWLNSYMHKLLVLDAP
notes: N-terminally truncated TIP39 analogue from Biomolecules Midwest
binding result [13]: binds

AVSEIQLMHNLGKHLASVERMQWLRKKLQDVHNF (peptide, UniProt P04089 32-65, looked up, also: binding, rPTH(1-34) denotes the [Nle8,21, Tyr34] analogue) [rPTH(1-34)]
EC50 (cAMP production, HEK293 cells) [26]: 0.5 nM
-logEC50 (cAMP accumulation) [12]: 9.39
EC50 (cAMP accumulation) [12]: 0.41 nM
EC50 (cAMP production, HEK293 cells) [12]: 58000 nM
EC50 (cAMP) [12]: 0.15 nM
Emax [12]: 85%
Emax, % of response to 1 µM hPTH(1-34) [12]: 94%
-logEC50 (cAMP accumulation) (rat PTH2 receptor): 7.09
EC50 (cAMP accumulation) (rat PTH2 receptor): 81 nM
EC50 (cAMP) (rat PTH2 receptor): 49 nM
Emax, % of response of hPTH2r to 1 µM hPTH(1-34) (rat PTH2 receptor): 46%
Emax, % of response of rPTH2r to 3 µM rPTH(1-34) (rat PTH2 receptor): 100%
maximal ligand-stimulated cAMP production (50 µl-volume assays) (rat PTH2 receptor): 2.1 pmol.well^-1

SEIQFMHNLGKHLSSMERVEWLRKKLQDVHNF (peptide, UniProt P01268 34-65, looked up) [bPTH(3-34)]
-logEC50 (cAMP accumulation) [12]: 8.05
EC50 (cAMP accumulation) [12]: 8.9 nM
Emax, % of response to 1 µM hPTH(1-34) [12]: 38%
